Experimental data reported in patent US20170166631A1 (published 2017).

B1: NI-302.7A8 (antibody, V domains shown)
VH: EVQLVESGGGSVQPGGSLRLSCVASGFIFRNSWMTWVRQDPGKGLEWVANIKEDGSRTYYVDSVKGRFTISRDNAKNSLYLQMNSLRAEDTAVYYCARGDYNSGIYYFPGDYWGQGTLVTVSS
VL: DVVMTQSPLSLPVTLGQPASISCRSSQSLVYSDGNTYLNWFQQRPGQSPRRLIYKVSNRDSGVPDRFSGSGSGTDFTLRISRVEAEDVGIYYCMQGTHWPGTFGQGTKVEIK
B2: NI-302.78H12 (antibody, V domains shown)
VH: QVQLQESGPGLVKPSETLSLTCLVSSYSISNGYYWGWIRQPPGKGLEWIGSIYHNGNTYYNPSLKSRVIISVDTSKNQFSLKLRSVTAADTAVYYCAMPSATYYYGSGTQFHAFDVWGQGTTVTVSS
VL: QSALTQPRSVSGSPGQSVTISCTGTSRDVGNYNYVSWYQQHPGEVPKLIIYDVSERPSGVPDRFSGSKSGNTASLTISGLQAEDEADYYCCSYAGSYTFEVFGGGTKLTVL
B3: NI-302.44D7 (antibody, V domains shown)
VH: EVQLVQSGGGLVQPGGSLRLSCAASGFTFSSYAMSWVRQAPGKGLEWVSGIGYSDTSTYYADSVKGRFTVSRDISKNTLYLQMNSLRAEDTAVYYCAKGTRDYYGMDVWGQGTMVTVSS
VL: QTVVTQEPSFSVSPGGTVTLTCGLSSGSVSTSYYPSWYQQTPGRAPRTLIYSTNTRSSGVPDRFSGSILGNKAALTITGAQADDESDYYCVLFMGSGIGVFGGGTRLTVL
B4: NI-302.37C12 (antibody, V domains shown)
VH: EVQLVESGGGLVQPGGSLRLSCVASALTVTNSQMTWVRRAPGRGLEWVSVIYTSGSAYYADSVKGRFTISRDNSKNTVFLQMNSLRVEDTAVYYCAKGPSAYYYGLDLWGQGTTVTVSS
VL: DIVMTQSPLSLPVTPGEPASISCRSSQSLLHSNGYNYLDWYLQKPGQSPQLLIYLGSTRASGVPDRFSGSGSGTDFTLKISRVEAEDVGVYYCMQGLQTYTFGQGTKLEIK
B5: NI-302.22H9 (antibody, V domains shown)
VH: EVQLVESGGGLVHPWGSLRVSCAASGFSVSNYAITWVRQAPGKGLEYISVIYRDGRTYYGDSVRGRFTISRDDSKNTIYLQMNSLRFEDTAVYYCARAHGQYYYGVDVWGQGTTVTVSS
VL: DVVMTQSPLSLSVSPGEPASISCRSSQSLLHSNGYNYLDWYRQKPGQSPQLLIYLNSNRASGVPDRFSGSGSGTEFTLTISRVEAEDVGVYYCMQSLQTFTFGGGTKVEIK
B6: NI-302.71F6 (antibody, V domains shown)
VH: QVQLQQWGAGLLKPSETLSLTCAVYGGSLSGYYWSWIRQPPGKGLEWIGEVNHSGGTNLNSSLKSRVIISVDKSKKQFSLKLSSVTAADTAMYFCARGYSYDPKYYFDSWSQGTLVTVSS
VL: QSALTQPASVSGSPGQAITISCTGTSSDIGSYDFVSWYQQDPGKAPKVIIYGVNKRPSGVSNRFSGSKSGNTASLTISGLQADDEADYYCCSYAGSTTWVFGGGTKLTVL
B7: NI-302.3D8 (antibody, V domains shown)
VH: EVQLVQSGGGLVQPGGSLRLSCEASGFIFKTYAMSWVRQLPGRGLEWVSAISATGGSTFYAESVKGRLTISRDTAKNTVYLQMNNLRAEDTAMYYCAKGSTAVYLFDSWGQGTLVTVSS
VL: DIQMTQSPSSLSASVGDRVTLTCRASQDIRNFLAWIQQKPGKPPKSLIYAASTLQSGVPSRFSGSGSGTDFTLTISSLHPEDFATYYCQQFYNYPPTFGQGTKVEIK
B8: NI-302.11H6 (antibody, V domains shown)
VH: EVQLVQSGAVMKKPGDSVRVSCRASTYSFSTYSFTWVRQVPGQGLEWMGWISAYNGHTNYVDSFQGRLTLTTDTSASTAYMELRSLRSDDTAIYYCAAVDTTYYYYGMDVWGQGTLVTVSS
VL: QTVVTQEPTFSVSPGGTVTLTCALRFGSVSSSYYPSWFQQTPGQAPRTLIYSTNTRSSGVPARFSGSILGNKAALTIAGAQANDEADYYCVLYMGSGIGVFGGGTKLTVL
B9: NI-302.15D3 (antibody, V domains shown)
VH: EVQLVESGGDLVQPGGSLRLSCAASGFTFSSYWMHWVRQAPGKGLVWVSRISNDGSSKTYADSVKGRFTISRDNAKNTLYLQMNSLRAEDTAVYYCAILGGYCSSTSCRPFDNWGQGTLVTVSS
VL: QSALTQPASVSGSPGQSITISCTGTSSDVGVYNYVSWYQQHPGKAPKLMIFDVSNRPSGISNRFSGSKSGNTASLTISGLQAEDEADYYCSSYTSSDTWVFGGGTKLTIL
B10: NI-302.2A2 (antibody, V domains shown)
VH: EVQLVESGGGLVQPGGSLRLSCAASGFTFSTYWMNWVRQAPGKGLEWVANIKPDGSDKYYVDSVKGRFTISRDNAKNSLYLQMNSLRDEDTAVYYCARGDGSGWNVYWGQGTLVTVSS
VL: DIQMTQSPDSLAVSLGERATINCKSSQSLLYTSKNKDSKNYLGWYQQKPGQPPKLLIYWASTRESGVPDRFSGSGSGTDFTLTISSLQAEDVAVYYCQQYYTTPQFGGGTKVEIK
B11: NI-302.46C9 (antibody, V domains shown)
VH: QVQLQESGPGLVKPSQTLSLTCTVSGASVSSGAYYWSWIRQPAGKRLEWIGRVYPTWSTNYNPSLESRVTISLDTSNNQFSLKLTSLTAADTAVYYCAREAPGDYDAAPLAYWGQGTLVTVSS
VL: DIQMTQSPSSLSASVGDRVTITCRASQYISHYLNWYRQKPGKAPQLVIYAASSLQSEVPSRFSGSGSGPEFTLTISSLQPEDFATYYCQQSYTTPRTFGQGTKLEIK

Molecular target: T1, GST-HttExon1Q21 (recombinant huntingtin exon 1 protein with 21 polyQ repeats fused to an N-terminal GST tag) (;human, UniProt P08515 1-218 = GST; P42858 1-88)
Experiment: ELISA

Binder	EC50
B1	0.2 nM
B2	0.5 nM

Molecular target: T2, HD49 (huntingtin exon 1 protein with 49 polyQ repeats after cleavage of the GST tag; aggregation reaction) (human, UniProt P42858 1-88)
T2 chain: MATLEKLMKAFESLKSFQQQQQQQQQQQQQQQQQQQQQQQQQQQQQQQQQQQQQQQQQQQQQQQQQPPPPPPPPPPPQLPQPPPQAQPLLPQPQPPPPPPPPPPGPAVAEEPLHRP
Experiment: ELISA

Binder	EC50
B1	1.5 nM
B2	1.6 nM

Molecular target: T3, HD21 (huntingtin exon 1 protein with 21 polyQ repeats after cleavage of the GST tag; aggregation reaction) (human, UniProt P42858 1-88)
T3 chain: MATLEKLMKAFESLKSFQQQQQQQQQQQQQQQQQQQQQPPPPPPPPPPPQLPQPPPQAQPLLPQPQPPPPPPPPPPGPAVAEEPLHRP
Experiment: ELISA

Binder	EC50
B1	0.4 nM
B2	1.1 nM

Molecular target: T1, GST-HttExon1Q21 (recombinant huntingtin …)
Experiment: ELISA
Remark: another data set of the same source

Binder	EC50
B3	5.4 nM
B4	0.3 nM
B5	1.6 nM

Molecular target: T2, HD49 (huntingtin exon 1 protein with 49 …)
Experiment: ELISA
Remark: another data set of the same source

Binder	EC50
B3	10 nM
B4	4.9 nM
B5	21 nM

Molecular target: T3, HD21 (huntingtin exon 1 protein with 21 …)
Experiment: ELISA
Remark: another data set of the same source

Binder	EC50
B3	11 nM
B4	2.5 nM
B5	11 nM

Molecular target: T1, GST-HttExon1Q21 (recombinant huntingtin …)
Experiment: ELISA
Remark: another data set of the same source

Binder	EC50
B6	3 nM
B7	0.05 nM
B8	0.24 nM

Molecular target: T2, HD49 (huntingtin exon 1 protein with 49 …)
Experiment: ELISA
Remark: another data set of the same source

Binder	EC50
B6	4.4 nM
B7	0.03 nM
B8	0.16 nM

Molecular target: T3, HD21 (huntingtin exon 1 protein with 21 …)
Experiment: ELISA
Remark: another data set of the same source

Binder	EC50
B6	7.6 nM
B7	0.02 nM
B8	1.22 nM

Molecular target: T1, GST-HttExon1Q21 (recombinant huntingtin …)
Experiment: ELISA
Remark: another data set of the same source
Target sequence in this assay (P08515 1-218, tags or fused parts left off): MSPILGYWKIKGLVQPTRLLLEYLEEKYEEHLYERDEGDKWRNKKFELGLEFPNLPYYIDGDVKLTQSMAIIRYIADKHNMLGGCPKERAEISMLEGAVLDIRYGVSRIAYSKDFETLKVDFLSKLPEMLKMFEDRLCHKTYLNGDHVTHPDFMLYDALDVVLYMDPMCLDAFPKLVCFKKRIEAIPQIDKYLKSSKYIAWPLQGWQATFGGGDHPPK

Binder	EC50
B9	4.2 nM
B10	10.1 nM

Molecular target: T4, BSA-coupled synthetic peptide of the P-rich domain sequence of huntingtin exon 1 (coupled to BSA)
T4 peptide: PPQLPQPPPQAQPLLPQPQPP
Experiment: ELISA

Binder	EC50
B9	1.2 nM
B10	1.4 nM

Molecular target: T2, HD49 (huntingtin exon 1 protein with 49 …)
Experiment: ELISA
Remark: another data set of the same source

Binder	EC50
B9	15 nM
B10	> 100 nM

Molecular target: T3, HD21 (huntingtin exon 1 protein with 21 …)
Experiment: ELISA
Remark: another data set of the same source

Binder	EC50
B9	6.4 nM
B10	12.3 nM

Molecular target: T1, GST-HttExon1Q21 (recombinant huntingtin …)
Experiment: ELISA
Remark: another data set of the same source

Binder	EC50
B9	4.2 nM
B10	10.1 nM
B11	~0.07 nM

Molecular target: T2, HD49 (huntingtin exon 1 protein with 49 …)
Experiment: ELISA
Remark: another data set of the same source

Binder	EC50
B9	15 nM
B10	~100 nM
B11	~0.05 nM

Molecular target: T3, HD21 (huntingtin exon 1 protein with 21 …)
Experiment: ELISA
Remark: another data set of the same source

Binder	EC50
B9	6.4 nM
B10	12.3 nM
B11	0.3 nM

Molecular target: T1, GST-HttExon1Q21 (recombinant huntingtin …)
Experiment: ELISA
Remark: another data set of the same source

Binder	EC50
B3	5.4 nM
B4	0.33 nM
B6	3 nM
B1	0.2 nM
B5	1.6 nM
B7	0.05 nM
B2	0.5 nM
B8	0.2 nM
B11	0.07 nM

Molecular target: T2, HD49 (huntingtin exon 1 protein with 49 …)
Experiment: ELISA
Remark: another data set of the same source

Binder	EC50
B3	10 nM
B4	4.9 nM
B6	4.4 nM
B1	1.5 nM
B5	22 nM
B7	0.03 nM
B2	1.6 nM
B8	0.2 nM
B11	0.05 nM

Molecular target: T3, HD21 (huntingtin exon 1 protein with 21 …)
Experiment: ELISA
Remark: another data set of the same source

Binder	EC50
B3	11 nM
B4	2.5 nM
B6	7.6 nM
B1	0.4 nM
B5	11 nM
B7	0.02 nM
B2	1.1 nM
B8	1.2 nM
B11	0.3 nM
